B1: UNC93B1-GFP, wild type [modified: N-glycosylated at N251 and N272; N-glycosylated at N251 and N272] [not stated] / TLR9-myc (in UNC93B1 KO iBMDMs) [not stated] (parent)
chain 1: MEVEPPLYPVAGAAGPQGDEDRHGVPDGPEAPLDELVGAYPNYNEEEEERRYYRRKRLGVVKNVLAASTGVTLTYGVYLGLLQMQLILHYDETYREVKYGNMGLPDIDSKMLMGINVTPIAALLYTPVLIRFFGTKWMMFLAVGIYALFVSTNYWERYYTLVPSAVALGMAIVPLWASMGNYITRMSQKYYEYSHYKEQDEQGPQQRPPRGSHAPYLLVFQAIFYSFFHLSFACAQLPMIYFLNNYLYDLNHTLINVQSCGTKSQGILNGFNKTVLRTLPRSKNLIVVESVLMAVAFLAMLMVLGLCGAAYRPTEEIDLRSVGWGNIFQLPFKHVRDFRLRHLVPFFIYSGFEVLFACTGFALGYGVCSMGLERLAYLLIAYSLGASASSVLGLLGLWLPRSVPLVAGAGLHLLLTLSLFFWAPAPRVLQHSWIFYFVAALWGVGSALNKTGLSTLLGILYEDKERQDFIFTIYHWWQAVAIFVVYLGSSLPMKAKLAVLLVTLVAAAASYLWMEQKLQQGLVPRQPRIPKPQHKVRGYRYLEEDNSDESDMEGEQGQGDCAEDEAPQAGPLGAEPAGPCRKPCPYEQALGGDGPEEQ
chain 2: LGTLPAFLPCELKPHGLVDCNWLFLKSVPRFSAAASCSNITRLSLISNRIHHLHNSDFVHLSNLRQLNLKWNCPPTGLSPLHFSCHMTIEPRTFLAMRTLEELNLSYNGITTVPRLPSSLVNLSLSHTNILVLDANSLAGLYSLRVLFMDGNCYYKNPCTGAVKVTPGALLGLSNLTHLSLKYNNLTKVPRQLPPSLEYLLVSYNLIVKLGPEDLANLTSLRVLDVGGNCRRCDHAPNPCIECGQKSLHLHPETFHHLSHLEGLVLKDSSLHTLNSSWFQGLVNLSVLDLSENFLYESITHTNAFQNLTRLRKLNLSFNYRKKVSFARLHLASSFKNLVSLQELNMNGIFFRLLNKYTLRWLADLPKLHTLHLQMNFINQAQLSIFGTFRALRFVDLSDNRISGPSTLSEATPEEADDAEQEELLSADPHPAPLSTPASKNFMDRCKNFKFTMDLSRNNLVTIKPEMFVNLSRLQCLSLSHNSIAQAVNGSQFLPLTNLQVLDLSHNKLDLYHWKSFSELPQLQALDLSYNSQPFSMKGIGHNFSFVTHLSMLQSLSLAHNDIHTRVSSHLNSNSVRFLDFSGNGMGRMWDEGGLYLHFFQGLSGLLKLDLSQNNLHILRPQNLDNLPKSLKLLSLRDNYLSFFNWTSLSFLPNLEVLDLAGNQLKALTNGTLPNGTLLQKLDVSSNSIVSVVPAFFALAVELKEVNLSHNILKTVDRSWFGPIVMNLTVLDVRSNPLHCACGAAFVDLLLEVQTKVPGLANGVKCGSPGQLQGRSIFAQDLRLCLDEVLSWDCFGLSLLAVAVGMVVPILHHLCGWDVWYCFHLCLAWLPLLARSRRSAQTLPYDAFVVFDKAQSAVADWVYNELRVRLEERRGRRALRLCLEDRDWLPGQTLFENLWASIYGSRKTLFVLAHTDRVSGLLRTSFLLAQQRLLEDRKDVVVLVILRPDAHRSRYVRLRQRLCRQSVLFWPQQPNGQGGFWAQLSTALTRDNRHFYNQNFCRGPTAE

Variants of: B1
Assay: co-immunoprecipitation from isolated phagosomes, band densitometry
Details: with TLR9-myc (in UNC93B1 KO iBMDMs), means ± SD of two independent experiments, parent: 1, read off a plot

| ratio to parent | Variant |
| --- | --- |
| 1.3 A.U | chain 1 MEVEPPLYPVAGAAGPQGDEDRHGVPDGPEAPLDELVGAYPNYNEEEEERRYYRRKRLGVVKNVLAASTGVTLTYGVYLGLLQMQLILHYDETYREVKYGNMGLPDIDSKMLMGINVTPIAALLYTPVLIRFFGTKWMMFLAVGIYALFVSTNYWERYYTLVPSAVALGMAIVPLWASMGNYITRMSQKYYEYSHYKEQDEQGPQQRPPRGSHAPYLLVFQAIFYSFFHLSFACAQLPMIYFLNNYLYDLQHTLINVQSCGTKSQGILNGFNKTVLRTLPRSKNLIVVESVLMAVAFLAMLMVLGLCGAAYRPTEEIDLRSVGWGNIFQLPFKHVRDFRLRHLVPFFIYSGFEVLFACTGFALGYGVCSMGLERLAYLLIAYSLGASASSVLGLLGLWLPRSVPLVAGAGLHLLLTLSLFFWAPAPRVLQHSWIFYFVAALWGVGSALNKTGLSTLLGILYEDKERQDFIFTIYHWWQAVAIFVVYLGSSLPMKAKLAVLLVTLVAAAASYLWMEQKLQQGLVPRQPRIPKPQHKVRGYRYLEEDNSDESDMEGEQGQGDCAEDEAPQAGPLGAEPAGPCRKPCPYEQALGGDGPEEQ [chain 1 N251Q] |
| 1.1 A.U | chain 1 MEVEPPLYPVAGAAGPQGDEDRHGVPDGPEAPLDELVGAYPNYNEEEEERRYYRRKRLGVVKNVLAASTGVTLTYGVYLGLLQMQLILHYDETYREVKYGNMGLPDIDSKMLMGINVTPIAALLYTPVLIRFFGTKWMMFLAVGIYALFVSTNYWERYYTLVPSAVALGMAIVPLWASMGNYITRMSQKYYEYSHYKEQDEQGPQQRPPRGSHAPYLLVFQAIFYSFFHLSFACAQLPMIYFLNNYLYDLNHTLINVQSCGTKSQGILNGFQKTVLRTLPRSKNLIVVESVLMAVAFLAMLMVLGLCGAAYRPTEEIDLRSVGWGNIFQLPFKHVRDFRLRHLVPFFIYSGFEVLFACTGFALGYGVCSMGLERLAYLLIAYSLGASASSVLGLLGLWLPRSVPLVAGAGLHLLLTLSLFFWAPAPRVLQHSWIFYFVAALWGVGSALNKTGLSTLLGILYEDKERQDFIFTIYHWWQAVAIFVVYLGSSLPMKAKLAVLLVTLVAAAASYLWMEQKLQQGLVPRQPRIPKPQHKVRGYRYLEEDNSDESDMEGEQGQGDCAEDEAPQAGPLGAEPAGPCRKPCPYEQALGGDGPEEQ [chain 1 N272Q] |

From PMC9301129
